Tests used:
Assay in all cases: co-immunoprecipitation with anti-αPDGFR antibody from F cells, Western blot
[1] = molecular target: T1, phospholipase C-γ1 (PLCγ) (UniProt Q62077 2-1302, limits assumed)
T1 construct: Endogenous protein that co-precipitates with the receptor from F cell lysates; also called phospholipase C-gamma
T1 sequence (looked up): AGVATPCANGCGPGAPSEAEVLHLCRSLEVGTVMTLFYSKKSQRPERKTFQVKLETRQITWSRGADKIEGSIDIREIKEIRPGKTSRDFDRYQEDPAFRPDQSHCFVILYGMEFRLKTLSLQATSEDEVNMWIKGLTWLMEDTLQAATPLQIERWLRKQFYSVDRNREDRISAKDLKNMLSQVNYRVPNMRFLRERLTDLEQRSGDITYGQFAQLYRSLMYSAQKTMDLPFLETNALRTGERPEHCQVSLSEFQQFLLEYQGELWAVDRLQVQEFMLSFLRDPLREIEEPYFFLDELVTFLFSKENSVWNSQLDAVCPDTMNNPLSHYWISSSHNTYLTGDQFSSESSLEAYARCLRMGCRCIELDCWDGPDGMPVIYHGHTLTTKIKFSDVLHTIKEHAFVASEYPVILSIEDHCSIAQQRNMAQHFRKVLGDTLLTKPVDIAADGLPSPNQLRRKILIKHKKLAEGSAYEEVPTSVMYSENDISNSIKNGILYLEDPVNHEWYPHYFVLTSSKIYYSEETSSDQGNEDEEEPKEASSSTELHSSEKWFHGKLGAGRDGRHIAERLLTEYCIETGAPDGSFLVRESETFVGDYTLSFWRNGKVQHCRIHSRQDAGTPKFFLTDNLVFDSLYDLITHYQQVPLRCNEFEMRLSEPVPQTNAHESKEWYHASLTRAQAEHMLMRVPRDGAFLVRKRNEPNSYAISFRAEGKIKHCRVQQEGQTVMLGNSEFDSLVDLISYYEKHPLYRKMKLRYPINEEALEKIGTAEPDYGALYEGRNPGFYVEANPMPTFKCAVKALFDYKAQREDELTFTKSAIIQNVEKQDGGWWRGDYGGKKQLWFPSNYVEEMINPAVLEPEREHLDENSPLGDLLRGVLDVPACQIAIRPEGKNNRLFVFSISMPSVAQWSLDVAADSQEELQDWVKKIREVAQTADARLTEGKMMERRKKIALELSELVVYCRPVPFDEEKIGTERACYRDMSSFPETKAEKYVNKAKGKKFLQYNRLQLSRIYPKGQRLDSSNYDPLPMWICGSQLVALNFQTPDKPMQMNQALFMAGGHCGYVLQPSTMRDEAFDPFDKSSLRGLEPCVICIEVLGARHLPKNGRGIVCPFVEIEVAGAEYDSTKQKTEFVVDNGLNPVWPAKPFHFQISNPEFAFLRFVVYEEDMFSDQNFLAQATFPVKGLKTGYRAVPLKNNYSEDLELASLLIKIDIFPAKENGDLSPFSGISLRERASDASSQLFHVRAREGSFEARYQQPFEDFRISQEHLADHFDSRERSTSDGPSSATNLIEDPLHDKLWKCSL
Text: (§1) Portions of the membrane that contained the proteins of the appropriate molecular mass were immunoblotted for PLCγ, the regulatory subunit of PI3K (p85), or SHP-2. Crude rabbit anti-p85 antibody is from Dr. A. Toker (Beth Israel Hospital/Harvard Medical School, Boston, Mass.). The monoclonal antibodies against PLCγ and SHP-2 were purchased from Upstate Biotechnology Inc.

[2] = molecular target: T2, regulatory subunit of PI3K (p85) (UniProt P26450 2-724)
T2 construct: The catalytic subunit is not described; also called phosphoinositide 3-kinase
Text: as §1

[3] = molecular target: T3, tyrosine phosphatase SHP-2 (UniProt P35235 2-593, limits assumed)
T3 construct: Endogenous protein that co-precipitates with the receptor from F cell lysates
T3 sequence (looked up): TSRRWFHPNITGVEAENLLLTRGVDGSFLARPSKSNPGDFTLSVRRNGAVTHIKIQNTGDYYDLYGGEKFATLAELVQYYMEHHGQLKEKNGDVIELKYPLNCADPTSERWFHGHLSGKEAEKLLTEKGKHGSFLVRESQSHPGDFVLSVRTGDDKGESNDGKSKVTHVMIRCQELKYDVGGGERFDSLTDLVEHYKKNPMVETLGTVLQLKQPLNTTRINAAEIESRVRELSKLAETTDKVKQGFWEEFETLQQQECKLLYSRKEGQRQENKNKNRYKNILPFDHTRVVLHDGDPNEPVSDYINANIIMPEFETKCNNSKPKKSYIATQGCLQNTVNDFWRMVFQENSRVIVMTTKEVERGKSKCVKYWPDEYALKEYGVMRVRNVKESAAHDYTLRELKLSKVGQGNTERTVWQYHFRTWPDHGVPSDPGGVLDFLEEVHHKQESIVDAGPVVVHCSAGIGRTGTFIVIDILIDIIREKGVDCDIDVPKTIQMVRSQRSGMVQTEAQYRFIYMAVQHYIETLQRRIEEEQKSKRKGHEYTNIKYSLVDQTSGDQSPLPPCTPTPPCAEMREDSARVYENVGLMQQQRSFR
Text: as §1

Measured: binding result

T2 sequence (P26450 2-724): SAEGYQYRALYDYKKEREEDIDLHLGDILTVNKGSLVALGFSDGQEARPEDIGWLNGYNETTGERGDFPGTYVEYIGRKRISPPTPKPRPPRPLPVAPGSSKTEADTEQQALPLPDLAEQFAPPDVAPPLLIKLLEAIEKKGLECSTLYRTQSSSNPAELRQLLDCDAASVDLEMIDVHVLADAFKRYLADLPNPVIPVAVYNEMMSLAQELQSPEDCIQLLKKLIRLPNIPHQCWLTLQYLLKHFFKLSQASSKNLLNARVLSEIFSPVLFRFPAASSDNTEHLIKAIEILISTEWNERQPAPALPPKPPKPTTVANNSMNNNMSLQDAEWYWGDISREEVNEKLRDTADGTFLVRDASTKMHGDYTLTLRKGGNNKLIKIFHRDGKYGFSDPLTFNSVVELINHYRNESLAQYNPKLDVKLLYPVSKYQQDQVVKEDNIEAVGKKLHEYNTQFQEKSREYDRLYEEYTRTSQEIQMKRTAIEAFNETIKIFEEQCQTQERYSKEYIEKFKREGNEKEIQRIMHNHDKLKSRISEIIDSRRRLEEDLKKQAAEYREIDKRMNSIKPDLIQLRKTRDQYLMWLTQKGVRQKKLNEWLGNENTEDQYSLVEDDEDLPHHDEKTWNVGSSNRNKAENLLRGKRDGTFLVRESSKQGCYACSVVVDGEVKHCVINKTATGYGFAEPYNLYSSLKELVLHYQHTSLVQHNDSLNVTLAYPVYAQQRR

B1: αPDGFR mutant F7 (Tyr to Phe substitution at 572, 574, 720, 731, 742, 988, and 1018) (receptor)
chain: QLSLPSILPNENEKVVQLNSSFSLRCFGESEVSWQYPMSEEESSDVEIRNEENNSGLFVTVLEVSSASAAHTGLYTCYYNHTQTEENELEGRHIYIYVPDPDVAFVPLGMTDYLVIVEDDDSAIIPCRTTDPETPVTLHNSEGVVPASYDSRQGFNGTFTVGPYICEATVKGKKFQTIPFNVYALKATSELDLEMEALKTVYKSGETIVVTCAVFNNEVVDLQWTYPGEVKGKGITMLEEIKVPSIKLVYTLTVPEATVKDSGDYECAARQATREVKEMKKVTISVHEKGFIEIKPTFSQLEAVNLHEVKHFVVEVRAYPPPRISWLKNNLTLIENLTEITTDVEKIQEIRYRSKLKLIRAKEEDSGHYTIVAQNEDAVKSYTFELLTQVPSSILDLVDDHHGSTGGQTVRCTAEGTPLPDIEWMICKDIKKCNNETSWTILANNVSNIITEIHSRDRSTVEGRVTFAKVEETIAVRCLAKNLLGAENRELKLVAPTLRSELTVAAAVLVLLVIVIISLIVLVVIWKQKPRYEIRWRVIESISPDGHEFIFVDPMQLPYDSRWEFPRDGLVLGRVLGSGAFGKVVEGTAYGLSRSQPVMKVAVKMLKPTARSSEKQALMSELKIMTHLGPHLNIVNLLGACTKSGPIYIITEYCFYGDLVNYLHKNRDSFLSHHPEKPKKELDIFGLNPADESTRSFVILSFENNGDFMDMKQADTTQFVPMLERKEVSKYSDIQRSLYDRPASYKKKSMLDSEVKNLLSDDNSEGLTLLDLLSFTYQVARGMEFLASKNCVHRDLAARNVLLAQGKIVKICDFGLARDIMHDSNYVSKGSTFLPVKWMAPESIFDNLYTTLSDVWSYGILLWEIFSLGGTPYPGMMVDSTFYNKIKSGYRMAKPDHATSEVYEIMVKCWNSEPEKRPSFYHLSEIVENLLPGQYKKSYEKIHLDFLKSDHPAVARMRVDSDNAFIGVTYKNEEDKLKDWEGGLDEQRLSADSGFIIPLPDIDPVPEEEDLGKRNRHSSQTSEESAIETGSSSSTFIKREDETIEDIDMMDDIGIDSSDLVEDSFL
notes: Expressed in F cells and immunoprecipitated from lysates
no binding: all assays above

— patent US20020111304A1 (SCHEPENS EYE RESEARCH INSTITUTE, published 2002)
